Measurements taken from article PMC9501438.

Key:
[1] = target: Arkadia RING 68 aa (human) (UniProt Q6ZNA4); experiment: ITC; Microcal PEAQ ITC, 25 °C; 75-200 uM Arkadia polypeptide in the cell, 0.75-2 mM UBCH5B from the syringe in 2 uL injections; single site-binding model
[2] = target: Arkadia 119 aa polypeptide (human) (UniProt Q6ZNA4); experiment: as above
Chain of Arkadia 119 aa polypeptide (human) (Q6ZNA4 876-994): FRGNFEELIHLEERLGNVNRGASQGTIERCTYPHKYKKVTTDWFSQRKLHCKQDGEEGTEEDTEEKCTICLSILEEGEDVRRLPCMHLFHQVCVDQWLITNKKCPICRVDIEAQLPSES

Chain of UBCH5B (P62837 whole entry): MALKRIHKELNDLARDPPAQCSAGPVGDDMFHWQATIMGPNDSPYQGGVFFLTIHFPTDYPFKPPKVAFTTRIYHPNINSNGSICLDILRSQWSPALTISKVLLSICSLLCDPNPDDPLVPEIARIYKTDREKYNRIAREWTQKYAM
Chain of Arkadia RING 68 aa (human) (Q6ZNA4 927-994): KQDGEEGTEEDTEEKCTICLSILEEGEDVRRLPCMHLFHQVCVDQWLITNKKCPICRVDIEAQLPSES

Substance: UBCH5B (from UniProt P62837 1-147) (enzyme)
- dH [1]: 3.1 kcal/mol
- stoichiometry N [1]: 1
- dH [2]: -4.7 kcal/mol
- stoichiometry N [2]: 0.6
